Source: patent US20180117174A1 (GANYMED PHARMACEUTICALS, published 2018)

B1: chim mAB279 (antibody, V domains shown)
VH: QVQLQQSGAELARPGASVKLSCKASGYTFTDYYINWVKQRTGQGLEWIGEIYPGSGNTYYNEKFKGKATLTADKSSSTAYMQLSSLTSEDSAVYFCARSYGAFDYWGQGTTLTVSS
VL: DIVMTQSQKFMSTSVGDRVSITCKASQNVRTAVAWYQQKPGQSPKALIYLASNRHTGVPDRFTGSGSGTDFTLTISNVQSEDLADYFCLQHWNYPLTFGGGTKLEIKR
B2: mu mAB279 (antibody, mouse IgG2a, V domains shown)
VH: B1 VH
VL: DIVMTQSQKFMSTSVGDRVSITCKASQNVRTAVAWYQQKPGQSPKALIYLASNRHTGVPDRFTGSGSGTDFTLTISNVQSEDLADYFCLQHWNYPLTFGGGTKLEIK
notes: mouse IgG2a kappa
B3: chim mAB308 (antibody, V domains shown)
VH: QVQLQQSGPELVKPGASVKMSCKASGYTFTDYVISWVKQRTGQGLEWIGEIYPGSGSTYYNEKFKGKATLTADKSSNTAYMQLSSLTSEDSAVYFCARGVLLRAMDYWGQGTSVTVSS
VL: DIVMSQSPSSLAVSAGEKVTMSCKSSQSLLNSRTRKNYLAWYQQKPGQSPKLLIYWASTRESGVPDRFTGSGSGTDFTLTISSVQAEDLAVYYCKQSYNLYTFGGGTKLEIKR
B4: mu mAB294 (antibody, V domains shown)
VH: QIQLVQSGPELKKPGETVKISCKASGYTFTNYGMNWVKQAPGKGLKWMGWINTNTGEPTYAEEFKGRFAFSLETSASTAYLQINNLKNEDTATYFCARLGFGNAMDYWGQGTSVTVSS
VL: DIVMTQSPSSLTVTAGEKVTMSCKSSQSLLNSGNQKNYLTWYQQKPGQPPKLLIYWASTRESGVPDRFTGSGSGTDFTLTISSVQAEDLAVYYCQNDYSYPLTFGAGTKLELK
notes: Tied by its number
B5: chim mAB62 (antibody, V domains shown)
VH: QVQLQQSGAELMKPGASVKISCKATGYTFSSYWIEWVKQRPGHGLEWIGEILPGSGSTNYNEKFKGKATFTADTSSNTAYMQLSSLTSEDSAVYYCARYDYPWFAYWGQGTLVTVSA
VL: QIVLTQSPAIMSASPGEKVTITCSASSSVSYMHWFQQKPGTSPKLWIYSTSNLASGVPARFSGSGSGTSYSLTISRMEAEDAATYYCQQRSSYPPTFGGGTKLEIKR
B6: mu mAB62 (antibody, mouse IgG2a, V domains shown)
VH: B5 VH
VL: QIVLTQSPAIMSASPGEKVTITCSASSSVSYMHWFQQKPGTSPKLWIYSTSNLASGVPARFSGSGSGTSYSLTISRMEAEDAATYYCQQRSSYPPTFGGGTKLEIK
notes: mouse IgG2a kappa

How the values were obtained:
[1] = target: T1, human claudin 18 splice variant 2 (CLDN18.2) (human); assay: flow cytometry (Table 6); APC-conjugated secondary antibody; binding assay 1
T1 construct: also called claudin 18 isotype 2
Procedure: (§1) 100 μl of the cell suspension per well (correspond to 2×10⁵ cells/well) were transferred to a round bottom 96-well microtiter plate. […] The cells were centrifuged for 1 min at 1500 rpm and the supernatant was discarded. […] After incubation, 100 μl FACS buffer were added to each sample, the cells were centrifuged for 1 min at 1500 rpm and the supernatant was discarded. The washing step with FACS buffer was repeated twice. Finally, the cells were resuspended in 100 μl FACS buffer and binding was determined using a BD FACS Array Bioanalyzer.
Antibodies marked with the same number (1 or 2) were tested in the same binding assay.

[2] = target: T1, human claudin 18 splice variant 2 …; assay: flow cytometry (Table 6); APC-conjugated secondary antibody; binding assay 1; normalized to IMAB362
Procedure: as §1

[3] = target: human claudin 18 splice variant 1 (CLDN18.1) (human, UniProt P56856 1-261); assay: flow cytometry, HEK293 cells stably expressing CLDN18.1 (column 'CLDN18.1 reactive')
[4] = target: T1, human claudin 18 splice variant 2 …; assay: flow cytometry, HEK293 cells stably expressing CLDN18.2; APC-conjugated secondary antibody; binding assay 3
Procedure: as §1

[5] = target: T1, human claudin 18 splice variant 2 …; assay: flow cytometry, HEK293 cells stably expressing CLDN18.2; APC-conjugated secondary antibody; binding assay 3; normalized to IMAB362
Procedure: as §1

Binder | EC50 [1] [µg/mL] | Max. binding [MFI] [1] [MFI] | EC50 normalized [%] [2] [%] | Max. binding normalized [%] [2] [%] | binding result [3] | EC50 [4] [µg/mL] | Max. binding [MFI] [4] [MFI] | EC50 normalized [%] [5] [%] | Max. binding normalized [%] [5] [%]
B1 | 60 | 4390 | 10300 | 24 | – | – | – | – | –
B2 | – | – | – | – | no binding | 0.027 | 118 | 4 | 1
B3 | 18.9 | 15000 | 3240 | 81 | – | – | – | – | –
B4 | – | – | – | – | no binding | 0.348 | 989 | 53 | 12
B5 | 32.3 | 4080 | 5540 | 22 | – | – | – | – | –
B6 | – | – | – | – | no binding | 27.9 | 2800 | 4280 | 35
